According to the supplement of paper PMC6757056:
± gives the standard deviation of the averaged measurements.

B1: library; a variant is named by its letters at N, in order (parent)
chain: GCUGUCACCGGUGUAUUACCCUAGUGGUCGACCGGUCUGAUGAGUCUNNNNNNAGACGAAACAGC

How the values were obtained:
[1] = variants of: B1; assay: FACS-Seq fitted mean relative fluorescence mCherry/BFP without ligand (log10 relative fluorescence); ligand: hypoxanthine (xanthine aptamer); higher = higher reporter protein expression; conditions: HEK293T, ligand present: no
Outline: (§1)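 HEK293T libraries were made by lentiviral transduction with a ribozyme-switch mCherry reporter and an EF1α-BFP marker, enriched, and incubated with or without ligand for 48 h. Cells were sorted into 6 mCherry/BFP bins, and each bin's genomic DNA was PCR-amplified, barcoded and run on MiSeq. Fluorescence was derived by normal fitting of the bin counts. The fitted log10(mCherry/BFP) mean was scaled to five spiked-in control ribozymes.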

[2] = variants of: B1; assay: normalized RNA/DNA level with ligand (relative to sTRSVctl = 100) (log10 (% of sTRSVctl)); ligand: hypoxanthine (xanthine aptamer); higher = less ribozyme self-cleavage, higher mRNA level; conditions: ligand concentration (+) RNA-Seq: 5 mM, HEK293T, reporter: mCherry (pCS4076), ligand present: yes
Experimental: (§2)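 Hammerhead (sTRSV) ribozyme switch libraries with a ligand aptamer grafted on stem I and a randomized N4-6 loop II, cloned into the 3' UTR of mCherry and transiently transfected into HEK293T cells; RNA-Seq 72 h post transfection with ligand added 1 h before transfection; RNA read count / plasmid DNA read count normalized to the non-cleaving sTRSVctl (x100), log10; sequences with >100 DNA reads. FACS-Seq: lentiviral library sorted into 6 bins after 48 h ligand, log-normal fit mean of mCherry/BFP scaled to controls. Printed sequences are partial switch sequences.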

[3] = variants of: B1; assay: normalized RNA/DNA level without ligand (relative to sTRSVctl = 100) (log10 (% of sTRSVctl)); ligand: hypoxanthine (xanthine aptamer); higher = less ribozyme self-cleavage, higher mRNA level; conditions: HEK293T, reporter: mCherry (pCS4076), ligand present: no
Experimental: as §2

[4] = variants of: B1; assay: FACS-Seq fitted mean relative fluorescence mCherry/BFP with ligand (log10 relative fluorescence); ligand: hypoxanthine (xanthine aptamer); ligand concentration (+) FACS-Seq: 5 mM; higher = higher reporter protein expression; conditions: HEK293T, ligand present: yes
Outline: as §1

| Variant | FACS-Seq fitted mean (log10) [1] | normalized RNA/DNA level with ligand (log10) [2] | normalized RNA/DNA level without ligand (log10) [3] | FACS-Seq fitted mean (log10) [4] |
| --- | --- | --- | --- | --- |
| CACGAA | 0.226 ± 0.02 | 1.87 ± 0.02 | 1.72 ± 0.037 | 0.363 ± 0.022 |
| GACCAG | 0.136 ± 0.033 | 1.865 ± 0.0019 | 1.55 ± 0.073 | 0.531 ± 0.013 |
| GACCAA | 0.126 ± 0.012 | 1.9242 ± 0.00022 | 1.81 ± 0.019 | 0.21 ± 0.049 |
| GACGAC | -0.384 ± 0.063 | 1.9292 ± 0.0013 | 1.67 ± 0.017 | -0.465 ± 0.092 |
| GACGAG | 0.184 ± 0.028 | 1.76 ± 0.056 | 1.31 ± 0.017 | 0.597 ± 0.026 |
| GACGAU | 0.412 ± 0.021 | 1.91 ± 0.027 | 1.75 ± 0.023 | 0.672 ± 0.053 |
| GACGAA | 0.408 ± 0.047 | 1.9 ± 0.056 | 1.7 ± 0.0095 | 0.566 ± 0.012 |
| CACUGG | 0.504 ± 0.03 | 1.9 ± 0.019 | 1.43 ± 0.16 | 0.709 ± 0.016 |
| AACAUA | 0.665 ± 0.084 | 1.89 ± 0.021 | 1.801 ± 0.018 | 0.63 ± 0.035 |
| AACAUG | 0.137 ± 0.021 | 1.861 ± 0.0051 | 1.44 ± 0.042 | 0.447 ± 0.013 |
| CAGAGA | 0.37782 ± 0.00012 | 1.892 ± 0.0089 | 1.659 ± 0.0052 | 0.696 ± 0.03 |
| CAGAGG | 0.273 ± 0.0028 | 1.813 ± 0.0092 | 1.21 ± 0.06 | 0.702 ± 0.048 |
| GACCGU | 0.658 ± 0.04 | 1.933 ± 0.0015 | 1.91 ± 0.0056 | 0.698 ± 0.013 |
| GAGAUA | 0.345 ± 0.013 | 1.869 ± 0.015 | 1.65 ± 0.0036 | 0.362 ± 0.087 |
| GAGAUG | 0.1129 ± 0.00042 | 1.65 ± 0.064 | 1.14 ± 0.05 | 0.707 ± 0.033 |
| GAGAUC | 0.247 ± 0.015 | 1.94 ± 0.021 | 1.83 ± 0.053 | 0.211 ± 0.004 |
| CACCAC | 0.232 ± 0.012 | 1.92 ± 0.056 | 1.81 ± 0.063 | 0.406 ± 0.036 |
| AACGAC | 0.305 ± 0.007 | 1.94 ± 0.02 | 1.79 ± 0.028 | 0.279 ± 0.064 |
